Assay results: patent publication US20110028697

Molecular target: T1, MazE (E. coli), MazE from Escherichia coli with His-Tag and Myc-Tag at the N-terminal end
T1 chain: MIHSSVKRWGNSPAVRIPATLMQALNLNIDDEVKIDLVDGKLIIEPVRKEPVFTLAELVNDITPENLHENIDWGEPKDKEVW

B1: MazF (E. coli), N-terminally His-Tagged MazF from Escherichia coli (protein)
chain: MVSRYVPDMGDLIWVDFDPTKGSEQAGHRPAVVLSPFMYNNKTGMCLCVPCTTQSKGYPFEVVLSGQERDGVALADQVKSIAWRARGATKKGTVAPEELQLIKAKINVLIG
degradation of the substrate MazG30 by the ribonuclease activity of MazF (E. coli), gel electrophoresis: When MazE and MazF were added to the substrate MazG30, degradation of the substrate MazG30 was inhibited and the band at the position corresponding to a 14mer polypeptide was decreased
